Biological target: HIV-1 reverse transcriptase WT (Human immunodeficiency virus type 1, UniProt P04585;P04585 588-1147;588-1027)
Assay: site-specific Fe2+ footprinting; 6 mM MgCl2, 1 uM EFdA-TP, 1 mM Fe2+, varied dTTP; RT 600 nM, T/P 100 nM; mainly pre-translocation; Footprinting: 120 mM sodium cacodylate pH 7, 20 mM NaCl, 6 mM MgCl2, 1 uM EFdA-TP, 7 min pre-incubation with dTTP, then 1 mM ammonium iron sulfate 5 min; temperature not given; EMSA conditions not in the material
Conditions: protein: recombinant; copies: 1;1; label: 5'-Cy3 on template Td43; template 5' overhang 12 nt after EFdA-MP addition; other end blunt

B1: Td43/Pd30-EFdA-MP (dsDNA)
DNA 1: CCATAGATAGCATTGGTGCTCGAACAGTGACAATCAGTGTAGA
DNA 2: TCTACACTGATTGTCACTGTTCGAGCACCAA
modifications: EFdA-MP (4'-ethynyl-2-fluoro-2'-deoxyadenosine monophosphate) as 3'-terminal nucleotide of primer, written A; added in situ by RT to Pd30 (S9)
binding result: binds

Reference: article PMC3695782, “Hypersusceptibility mechanism of Tenofovir-resistant HIV to EFdA”
